Assay results: the supplement of paper PMC7877785
± gives the uncertainty stated by the source.

Test: self-splicing fitness, log relative to wild type (ln ratio); higher = more splicing; Tetrahymena group I intron in knt gene, E. coli kanamycin selection, DiMSum; sequences stand for … in CUCUCU…GGAGGGAAAAGUUAUCAGGCAUGCACCUGGUAGCUAGUCUUUAAACCAAUAGAUUGCAUCGGUUUAAAAGGCAAGACCGUCAAAUUGCGGGAAAGGGGUCAACAGCCGUUCAGUACCAAGUCUCAGGGGAAACUUUGAGAUGGCCUUGCAAAGGGUAUGGUAAUAAGCUGACGGACAUGGUCCUAACCACGCAGCCAAGUCCUAAGUCAACAGAUCUUCUGUUGAUAUGGAUGCAGUUCACAGACUAAAUGUCGGUCGGGGAAGAUGUAUUCUUCUCAUAAGAUAUAGUCGGACCUCUCCUUAAUGGGAGCUAGCGGAUGAAGUGAUGCAACACUGGAGCCGCUGGGAACUAAUUUGUAUGCGAAAGUAUAUUGAUUAGUUUUGGAGUACUCGUGGUCG
Method in brief: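 Library with all eight P1ex-region intron nucleotides randomised, intron inside the knt kanamycin-resistance gene on pET-22b(+), in E. coli BL21(DE3). Cells grew overnight at 37°C or 30°C on LB agar with or without 25 μg/mL kanamycin (plus 100 μg/mL carbenicillin, 50 μM IPTG, 0.2% rhamnose), in six replicate transformations. Pooled colonies were amplicon-sequenced on Illumina HiSeq 2500. DiMSum fitness is the error-weighted combination of wild-type-normalised replicate fold changes, kanamycin versus none.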

## CAUAAGCAAUAUUACGGCGU
30 °C
  self-splicing fitness (ln): -2.7 ± 0.15
37 °C
  self-splicing fitness (ln): -0.836 ± 0.12

## CAUAAGCAAUAUUACGGGAU
30 °C
  self-splicing fitness (ln): -3.51 ± 0.16
37 °C
  self-splicing fitness (ln): -2.3 ± 0.2

## CAUAAGCAAUAUUACGGGCC
37 °C
  self-splicing fitness (ln): -1.25 ± 0.36

## CAUAAGCAAUAUUACGGGUC
30 °C
  self-splicing fitness (ln): -3.31 ± 0.24
37 °C
  self-splicing fitness (ln): -2.97 ± 0.28

## CAUAAGCAAUAUUACGUAAA
30 °C
  self-splicing fitness (ln): -3.55 ± 0.25
37 °C
  self-splicing fitness (ln): -2.11 ± 0.17

## CAUAAGCAAUAUUACGUAGG
30 °C
  self-splicing fitness (ln): -0.808 ± 0.066
37 °C
  self-splicing fitness (ln): -0.719 ± 0.084

## CAUAAGCAAUAUUACGUAUC
30 °C
  self-splicing fitness (ln): -2.78 ± 0.2
37 °C
  self-splicing fitness (ln): -2.72 ± 0.25

## CAUCAGCAAUAUUACGAAGU
30 °C
  self-splicing fitness (ln): -3.41 ± 0.18
37 °C
  self-splicing fitness (ln): -1.52 ± 0.14

## CAUCAGCAAUAUUACGCCGA
30 °C
  self-splicing fitness (ln): -2.57 ± 0.32
37 °C
  self-splicing fitness (ln): -1.79 ± 0.31

## CAUCAGCAAUAUUACGCUAC
30 °C
  self-splicing fitness (ln): -3.62 ± 0.27
37 °C
  self-splicing fitness (ln): -3.33 ± 0.46

## CAUCAGCAAUAUUACGCUCU
30 °C
  self-splicing fitness (ln): -3.31 ± 0.19
37 °C
  self-splicing fitness (ln): -1.66 ± 0.17

## CAUCAGCAAUAUUACGCUUA
30 °C
  self-splicing fitness (ln): -1.77 ± 0.13
37 °C
  self-splicing fitness (ln): -0.562 ± 0.11

## CAUCAGCAAUAUUACGCUUC
30 °C
  self-splicing fitness (ln): -2.2 ± 0.18
37 °C
  self-splicing fitness (ln): -0.251 ± 0.12

## CAUCAGCAAUAUUACGGAAU
30 °C
  self-splicing fitness (ln): -2.46 ± 0.12
37 °C
  self-splicing fitness (ln): -2.11 ± 0.11

## CAUCAGCAAUAUUACGGACU
30 °C
  self-splicing fitness (ln): -3.78 ± 0.22
37 °C
  self-splicing fitness (ln): -0.896 ± 0.13

## CAUCAGCAAUAUUACGGAUG
30 °C
  self-splicing fitness (ln): -4 ± 0.14
37 °C
  self-splicing fitness (ln): -2.94 ± 0.14

## CAUCAGCAAUAUUACGGCAG
30 °C
  self-splicing fitness (ln): -0.68 ± 0.076
37 °C
  self-splicing fitness (ln): 0.196 ± 0.09

## CAUCAGCAAUAUUACGGGUG
30 °C
  self-splicing fitness (ln): -3.28 ± 0.14
37 °C
  self-splicing fitness (ln): -2.71 ± 0.2

## CAUCAGCAAUAUUACGGUCC
30 °C
  self-splicing fitness (ln): -1.37 ± 0.2
37 °C
  self-splicing fitness (ln): -0.885 ± 0.29

## CAUCAGCAAUAUUACGGUGC
30 °C
  self-splicing fitness (ln): -3.55 ± 0.43
37 °C
  self-splicing fitness (ln): -3.74 ± 0.46

## CAUCAGCAAUAUUACGGUGU
30 °C
  self-splicing fitness (ln): -4.64 ± 0.27
37 °C
  self-splicing fitness (ln): -1.77 ± 0.12

## CAUCAGCAAUAUUACGUCGA
30 °C
  self-splicing fitness (ln): -3 ± 0.21
37 °C
  self-splicing fitness (ln): -2.66 ± 0.24

## CAUGAGCAAUAUUACGAAAG
30 °C
  self-splicing fitness (ln): -1.36 ± 0.11
37 °C
  self-splicing fitness (ln): -1.18 ± 0.14

## CAUGAGCAAUAUUACGAACG
30 °C
  self-splicing fitness (ln): -0.482 ± 0.082
37 °C
  self-splicing fitness (ln): -0.421 ± 0.088

## CAUGAGCAAUAUUACGAAGC
37 °C
  self-splicing fitness (ln): -0.241 ± 0.49

## CAUGAGCAAUAUUACGAGAC
30 °C
  self-splicing fitness (ln): -3.32 ± 0.32
37 °C
  self-splicing fitness (ln): -1.35 ± 0.3

## CAUGAGCAAUAUUACGAGGG
30 °C
  self-splicing fitness (ln): -3.79 ± 0.22
37 °C
  self-splicing fitness (ln): -1.03 ± 0.14

## CAUGAGCAAUAUUACGAGUA
30 °C
  self-splicing fitness (ln): -2.36 ± 0.21
37 °C
  self-splicing fitness (ln): -1.12 ± 0.24

## CAUGAGCAAUAUUACGCGAU
30 °C
  self-splicing fitness (ln): -1.87 ± 0.18
37 °C
  self-splicing fitness (ln): -1.61 ± 0.32

## CAUGAGCAAUAUUACGCGGA
30 °C
  self-splicing fitness (ln): -2.6 ± 0.2
37 °C
  self-splicing fitness (ln): -1.64 ± 0.17

## CAUGAGCAAUAUUACGCGUU
30 °C
  self-splicing fitness (ln): -4.13 ± 0.42
37 °C
  self-splicing fitness (ln): -2.35 ± 0.26

## CAUGAGCAAUAUUACGCUUU
37 °C
  self-splicing fitness (ln): -3.02 ± 0.24

## CAUGAGCAAUAUUACGGAGC
30 °C
  self-splicing fitness (ln): -3.21 ± 0.25
37 °C
  self-splicing fitness (ln): -3.46 ± 0.35

## CAUGAGCAAUAUUACGGCCC
30 °C
  self-splicing fitness (ln): -2.29 ± 0.29

## CAUGAGCAAUAUUACGGCCG
30 °C
  self-splicing fitness (ln): -1.25 ± 0.12
37 °C
  self-splicing fitness (ln): -0.62 ± 0.16

## CAUGAGCAAUAUUACGGCGC
30 °C
  self-splicing fitness (ln): -3.56 ± 0.25
37 °C
  self-splicing fitness (ln): -4.32 ± 0.36

## CAUGAGCAAUAUUACGGGAU
30 °C
  self-splicing fitness (ln): -3.49 ± 0.3

## CAUGAGCAAUAUUACGUACG
30 °C
  self-splicing fitness (ln): -0.969 ± 0.074
37 °C
  self-splicing fitness (ln): 0.257 ± 0.1

## CAUGAGCAAUAUUACGUAGG
30 °C
  self-splicing fitness (ln): -1.82 ± 0.08
37 °C
  self-splicing fitness (ln): -1.46 ± 0.093
